We go through six molecules from patent publication US20250171562A1 (ALK ABELL, published 2025).

The chains are these.
B1: CIgG4F1A1(G4S)3 (Fc fusion)
chain 1: GPPCPPCPAPEFLGGPSVFLFPPKPKDTLMISRTPEVTCVVVDVSQEDPEVQFNWYVDGVEVHNAKTKPREEQFNSTYRVVSVLTVLHQDWLNGKEYKCKVSNKGLPSSIEKTISKAKGQPREPQVYTLPPCQEEMTKNQVSLWCLVKGFYPSDIAVEWESNGQPENNYKTTPPVLDSDGSFFLYSRLTVDKSRWQEGNVFSCSVMHEALHNHYTQKSLSLSLGKGGGGSGGGGSGGGGSDVQLQESGGGLVQAGGSLKLSCAASGGSLSRYDMGWFRQAPGKEREFVARISWSGTTKYYADAVKGRFAISRDNAKNTVYLQMNSLKPEDTAVYYCAAAFYGNRGYYDVNAYTSSGQGTQVTVS
chain 2: GPPCPPCPAPEFLGGPSVFLFPPKPKDTLMISRTPEVTCVVVDVSQEDPEVQFNWYVDGVEVHNAKTKPREEQFNSTYRVVSVLTVLHQDWLNGKEYKCKVSNKGLPSSIEKTISKAKGQPREPQVCTLPPSQEEMTKNQVSLSCAVKGFYPSDIAVEWESNGQPENNYKTTPPVLDSDGSFFLVSRLTVDKSRWQEGNVFSCSVMHEALHNHYTQKSLSLSLGKGGGGSGGGGSGGGGSEVQLLESGGGLVQPGGSLRLSCAASGFTFGNYDMAWVRQAPGKRPEWVSSIDTGGDITHYADSVKGRFTISRDNAKNTLYLQMNSLRPEDTAVYWCATDEEYALGPNEFDYYGQGTLVTVSS
B2: CIgG4F2A1(G4S)3 (Fc fusion)
chain 1: GPPCPPCPAPEFLGGPSVFLFPPKPKDTLMISRTPEVTCVVVDVSQEDPEVQFNWYVDGVEVHNAKTKPREEQFNSTYRVVSVLTVLHQDWLNGKEYKCKVSNKGLPSSIEKTISKAKGQPREPQVYTLPPCQEEMTKNQVSLWCLVKGFYPSDIAVEWESNGQPENNYKTTPPVLDSDGSFFLYSRLTVDKSRWQEGNVFSCSVMHEALHNHYTQKSLSLSLGKGGGGSGGGGSGGGGSDVQLQESGGGLVQAGGSLKLSCAASGGSLSRYDMGWFRQAPGKEREFVARISWSGDTKYYADAVEGRFAISRDNAQNTVYLQMNSLKPEDTAVYYCAVALYGNRGYYDVNTYSYWGQGTRVTVS
chain 2: GPPCPPCPAPEFLGGPSVFLFPPKPKDTLMISRTPEVTCVVVDVSQEDPEVQFNWYVDGVEVHNAKTKPREEQFNSTYRVVSVLTVLHQDWLNGKEYKCKVSNKGLPSSIEKTISKAKGQPREPQVCTLPPSQEEMTKNQVSLSCAVKGFYPSDIAVEWESNGQPENNYKTTPPVLDSDGSFFLVSRLTVDKSRWQEGNVFSCSVMHEALHNHYTQKSLSLSLGKGGGGSGGGGSGGGGSEVQLLESGGGLVQPGGSLRLSCAASGFTFGNYDMAWVRQAPGKRPEWVSSIDTGGDITHYADSVKGRFTISRDNAKNTLYLQMNSLRPEDTAVYWCATDEEYALGPNEFDYYGQGTLVTVSS
B3: CIgG4F2A1(G4S)1 (Fc fusion)
chain 1: GPPCPPCPAPEFLGGPSVFLFPPKPKDTLMISRTPEVTCVVVDVSQEDPEVQFNWYVDGVEVHNAKTKPREEQFNSTYRVVSVLTVLHQDWLNGKEYKCKVSNKGLPSSIEKTISKAKGQPREPQVYTLPPCQEEMTKNQVSLWCLVKGFYPSDIAVEWESNGQPENNYKTTPPVLDSDGSFFLYSRLTVDKSRWQEGNVFSCSVMHEALHNHYTQKSLSLSLGKGGGGSDVQLQESGGGLVQAGGSLKLSCAASGGSLSRYDMGWFRQAPGKEREFVARISWSGDTKYYADAVEGRFAISRDNAQNTVYLQMNSLKPEDTAVYYCAVALYGNRGYYDVNTYSYWGQGTRVTVS
chain 2: GPPCPPCPAPEFLGGPSVFLFPPKPKDTLMISRTPEVTCVVVDVSQEDPEVQFNWYVDGVEVHNAKTKPREEQFNSTYRVVSVLTVLHQDWLNGKEYKCKVSNKGLPSSIEKTISKAKGQPREPQVCTLPPSQEEMTKNQVSLSCAVKGFYPSDIAVEWESNGQPENNYKTTPPVLDSDGSFFLVSRLTVDKSRWQEGNVFSCSVMHEALHNHYTQKSLSLSLGKGGGGSEVQLLESGGGLVQPGGSLRLSCAASGFTFGNYDMAWVRQAPGKRPEWVSSIDTGGDITHYADSVKGRFTISRDNAKNTLYLQMNSLRPEDTAVYWCATDEEYALGPNEFDYYGQGTLVTVSS
B4: CIgG4F2A1(G4S)2 (Fc fusion)
chain 1: GPPCPPCPAPEFLGGPSVFLFPPKPKDTLMISRTPEVTCVVVDVSQEDPEVQFNWYVDGVEVHNAKTKPREEQFNSTYRVVSVLTVLHQDWLNGKEYKCKVSNKGLPSSIEKTISKAKGQPREPQVYTLPPCQEEMTKNQVSLWCLVKGFYPSDIAVEWESNGQPENNYKTTPPVLDSDGSFFLYSRLTVDKSRWQEGNVFSCSVMHEALHNHYTQKSLSLSLGKGGGGSGGGGSDVQLQESGGGLVQAGGSLKLSCAASGGSLSRYDMGWFRQAPGKEREFVARISWSGDTKYYADAVEGRFAISRDNAQNTVYLQMNSLKPEDTAVYYCAVALYGNRGYYDVNTYSYWGQGTRVTVS
chain 2: GPPCPPCPAPEFLGGPSVFLFPPKPKDTLMISRTPEVTCVVVDVSQEDPEVQFNWYVDGVEVHNAKTKPREEQFNSTYRVVSVLTVLHQDWLNGKEYKCKVSNKGLPSSIEKTISKAKGQPREPQVCTLPPSQEEMTKNQVSLSCAVKGFYPSDIAVEWESNGQPENNYKTTPPVLDSDGSFFLVSRLTVDKSRWQEGNVFSCSVMHEALHNHYTQKSLSLSLGKGGGGSGGGGSEVQLLESGGGLVQPGGSLRLSCAASGFTFGNYDMAWVRQAPGKRPEWVSSIDTGGDITHYADSVKGRFTISRDNAKNTLYLQMNSLRPEDTAVYWCATDEEYALGPNEFDYYGQGTLVTVSS
B5: CIgG4F2A1(RS) (Fc fusion)
chain 1: GPPCPPCPAPEFLGGPSVFLFPPKPKDTLMISRTPEVTCVVVDVSQEDPEVQFNWYVDGVEVHNAKTKPREEQFNSTYRVVSVLTVLHQDWLNGKEYKCKVSNKGLPSSIEKTISKAKGQPREPQVYTLPPCQEEMTKNQVSLWCLVKGFYPSDIAVEWESNGQPENNYKTTPPVLDSDGSFFLYSRLTVDKSRWQEGNVFSCSVMHEALHNHYTQKSLSLSLGKRSDVQLQESGGGLVQAGGSLKLSCAASGGSLSRYDMGWFRQAPGKEREFVARISWSGDTKYYADAVEGRFAISRDNAQNTVYLQMNSLKPEDTAVYYCAVALYGNRGYYDVNTYSYWGQGTRVTVS
chain 2: GPPCPPCPAPEFLGGPSVFLFPPKPKDTLMISRTPEVTCVVVDVSQEDPEVQFNWYVDGVEVHNAKTKPREEQFNSTYRVVSVLTVLHQDWLNGKEYKCKVSNKGLPSSIEKTISKAKGQPREPQVCTLPPSQEEMTKNQVSLSCAVKGFYPSDIAVEWESNGQPENNYKTTPPVLDSDGSFFLVSRLTVDKSRWQEGNVFSCSVMHEALHNHYTQKSLSLSLGKRSEVQLLESGGGLVQPGGSLRLSCAASGFTFGNYDMAWVRQAPGKRPEWVSSIDTGGDITHYADSVKGRFTISRDNAKNTLYLQMNSLRPEDTAVYWCATDEEYALGPNEFDYYGQGTLVTVSS
B6: CIgG4F3A1(RS) (Fc fusion)
chain 1: GPPCPPCPAPEFLGGPSVFLFPPKPKDTLMISRTPEVTCVVVDVSQEDPEVQFNWYVDGVEVHNAKTKPREEQFNSTYRVVSVLTVLHQDWLNGKEYKCKVSNKGLPSSIEKTISKAKGQPREPQVYTLPPCQEEMTKNQVSLWCLVKGFYPSDIAVEWESNGQPENNYKTTPPVLDSDGSFFLYSRLTVDKSRWQEGNVFSCSVMHEALHNHYTQKSLSLSLGKRSDVQLQESGGGLVQAGGSLKLSCAASRGSLSRWDVAWFRQAPGKERSFVTRISWSGTTSYYADAVKGRFAISRDNAKNTVYLQMNSLKPEDTAVYYCAVALYGNRGYYDVNAHSYWGQGTQVTVS
chain 2: GPPCPPCPAPEFLGGPSVFLFPPKPKDTLMISRTPEVTCVVVDVSQEDPEVQFNWYVDGVEVHNAKTKPREEQFNSTYRVVSVLTVLHQDWLNGKEYKCKVSNKGLPSSIEKTISKAKGQPREPQVCTLPPSQEEMTKNQVSLSCAVKGFYPSDIAVEWESNGQPENNYKTTPPVLDSDGSFFLVSRLTVDKSRWQEGNVFSCSVMHEALHNHYTQKSLSLSLGKRSEVQLLESGGGLVQPGGSLRLSCAASGFTFGNYDMAWVRQAPGKRPEWVSSIDTGGDITHYADSVKGRFTISRDNAKNTLYLQMNSLRPEDTAVYWCATDEEYALGPNEFDYYGQGTLVTVSS

T1 sequence (P01854 other isoform, or with tags, fused parts or gaps): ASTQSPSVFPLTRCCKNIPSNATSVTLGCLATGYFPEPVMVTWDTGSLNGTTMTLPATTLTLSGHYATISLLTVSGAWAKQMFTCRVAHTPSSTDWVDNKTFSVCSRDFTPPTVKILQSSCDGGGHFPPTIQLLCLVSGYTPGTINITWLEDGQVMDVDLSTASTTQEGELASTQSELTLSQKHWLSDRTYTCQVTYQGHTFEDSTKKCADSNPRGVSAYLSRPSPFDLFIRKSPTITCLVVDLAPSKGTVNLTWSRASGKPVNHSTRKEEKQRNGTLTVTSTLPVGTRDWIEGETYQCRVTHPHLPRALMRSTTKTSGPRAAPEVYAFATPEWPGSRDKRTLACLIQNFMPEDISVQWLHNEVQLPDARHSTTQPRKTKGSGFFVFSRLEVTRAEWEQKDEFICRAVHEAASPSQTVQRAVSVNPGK

This assay has as its target T1, recombinant human IgE (human, UniProt P01854-1 1-428).
T1 construct: made in-house (ALK); preloaded on immobilised FcεRIα in the displacement ELISA
Kind of assay: IgE-FcεRIα displacement ELISA. Put shortly:
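Streptavidin-coated plates carried site-specifically biotinylated recombinant human FcεRIα, loaded with recombinant human IgE at 13 ng/ml. sdAbs in a pM–μM series were added for 1 h, and displaced IgE was washed off. Percent displacement was the signal reduction versus the no-sdAb control, giving EC50 and maximal effect.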
One may read the EC50 as the concentration that produces a half-maximal response. In the case of B1, the EC50 amounted to 480 nM and the Max effect is 65%. In the case of B2, the Max effect was 45%. With B3, the Max effect came out at 20%. The same measure, in the same setting: under B4 stands 35%; under B5, 10%; under B6, 30%.
